Assay results taken from US20240368617A1, “NPR1 VARIANT TO ENHANCE PLANT RESISTANCE TO BIOTIC AND ABIOTIC STRESSES AND METHOD THEREOF” (Duke University, published 2024).

Columns and labels:
[1] = target: the molecule itself; assay: hydrogen peroxide-induced oligomerization, non-reducing SDS-PAGE
Description: WT NPR1 BTB/BHB (Thr39-Lys262) and the npr1(C156A), npr1 (C82A) and npr1(C212V/C216A/C223L) mutants were cloned into the pTrcHis vector (Thermo Fisher Scientific) as His10-MBP fusion proteins with a PreScission protease site following MBP and a C-terminal Strep tag. The proteins were expressed and purified similarly to the NPR1 (²SBD) as described above. The NPR1 BTB/BHB WT and mutant proteins at a concentration of 25 μM were incubated with 1 mM hydrogen peroxide in a buffer containing 125 mM HEPES and 150 mM NaCl at pH 8.0 at room temperature for 45 min. The oxidized samples were incubated with 50 mM iodoacetamide for 5 min, mixed with 4× SDS loading dye and analyzed using SDS-PAGE in the absence of any reducing reagent.

[2] = target: the molecule itself; assay: X-ray crystal structure of NPR1(deltaSBD); tetramer in the crystal
Description: 5. X-ray crystallography studies of NPR1 (ΔSBD)) and the TGA3 NID. Arabidopsis NPR1 (²SBD) (Thr39-Asp410) was cloned into the pTrcHis vector (Thermo Fisher Scientific) as a His10-MBP fusion protein containing a PreScission protease site following MBP and a C-terminal Strep tag. Expression and purification of NPR1 (²SBD) was performed using similar procedures to those described above for E. coli-expressed NPR1, except that the size-exclusion chromatography buffer contained 20 mM HEPES (pH 7.5), 150 mM NaCl and 1 mM TCEP. Protein crystals were grown using the sitting-drop vapor diffusion method at 20° C. Each drop was prepared by mixing 1 μl of the protein solution at 6 mg ml-1 with 1 μl of the reservoir solution containing 0.1 M HEPES (pH 7.5), 19% PEG 3350, 0.25 m tri-sodium citrate. Diffraction-quality protein crystals were collected after 1 week and cryoprotected with the reservoir solution containing 25% glycerol.

[3] = target: the molecule itself; assay: X-ray crystal structure, 1.5 A; self-association
Description: The Arabidopsis TGA3 NID (Ala160-Thr384) was cloned into the pTrcHis vector (Thermo Fisher Scientific) as a His10-MBP fusion protein containing a PreScission protease site following MBP and a C-terminal tandem Flag-HA tag. The purification procedure was per-formed similarly to that of Arabidopsis TGA3 (Asn87-Thr384) except that the size-exclusion chromatography buffer contained 20 mM HEPES (pH 7.5), 150 mM NaCl and 1 mM TCEP. Protein crystals were grown using the sitting-drop vapor diffusion method at 20° C. Each drop contained 1 μl of the protein solution mixed with 1 μl of the reservoir solution (0.1 m sodium acetate at pH 5.0, 20% (v/v) MPD). Diffraction quality protein crystals were collected after 1 week and cryoprotected with the reservoir solution also containing 25% glycerol.

[4] = target: the molecule itself; assay: cryo-EM of the NPR1-TGA3 complex; self-association
[5] = target: T1, Full-length Arabidopsis NPR1 with C-terminal Strep tag, expressed in E. coli (NPR1-Strep3) (Arabidopsis thaliana, UniProt P93002 1-593); assay: cryo-EM of BS3 cross-linked NPR1-TGA3-LS7 DNA complex
T1 construct: Full-length NPR1; Homodimer; Purified with 0.2 mM salicylic acid; also called WT NPR1; not shown: C-terminal Strep tag (Strep3) with its last Lys mutated to Arg
T1 sequence: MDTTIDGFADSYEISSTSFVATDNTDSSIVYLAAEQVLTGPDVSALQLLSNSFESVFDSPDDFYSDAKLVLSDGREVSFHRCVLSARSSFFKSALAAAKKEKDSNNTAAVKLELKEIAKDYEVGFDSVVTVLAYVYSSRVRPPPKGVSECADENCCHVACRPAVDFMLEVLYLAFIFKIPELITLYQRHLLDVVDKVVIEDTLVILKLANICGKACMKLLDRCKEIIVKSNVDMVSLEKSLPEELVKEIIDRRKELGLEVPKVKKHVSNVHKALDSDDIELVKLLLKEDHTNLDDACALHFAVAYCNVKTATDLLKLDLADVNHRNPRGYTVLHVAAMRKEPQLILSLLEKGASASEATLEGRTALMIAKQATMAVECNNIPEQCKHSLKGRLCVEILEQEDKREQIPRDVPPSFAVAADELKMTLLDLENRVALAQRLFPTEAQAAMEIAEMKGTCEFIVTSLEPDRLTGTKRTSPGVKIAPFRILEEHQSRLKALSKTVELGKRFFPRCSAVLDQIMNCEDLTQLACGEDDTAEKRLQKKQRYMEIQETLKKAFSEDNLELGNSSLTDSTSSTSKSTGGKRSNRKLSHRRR
Description: 2. NPR1 TGA3 LS7-DNA cryo-EM sample preparation. The purified NPR1-Strep3 (20 μM), TGA3-Flag-HA (48 μM) and the LS7 DNA containing a palindromic TGA-binding site (underlined in 5′-[…]-3′, 57.6 μM) were mixed and incubated at 4° C. for 30 min. The protein-DNA complex was cross-linked with 1.5 mM BS3 (Thermo Fisher Scientific) at room temperature for 30 min and quenched with 50 mM Tris (pH 8.0). The protein-DNA mixture was further purified using a Strep-Tactin column (Qiagen) and size-exclusion chromatography (Superose 6 in-crease 10/300 GL, Cytiva) in a buffer containing 25 mM HEPES (pH 7.5), 150 mM NaCl, 2 mM DTT and 0.2 mM SA.
3. Cryo-EM sample preparation and data collection. Cryo-EM grids containing the NPR1-TGA3-LS7-DNA complex were prepared using the Leica EM GP2 Automatic Plunge Freezer at 4° C. and 85% humidity. The UltrAuFoil R1.2/1.3 300-mesh grids (Quantifoil) were glow-discharged using the PELCO easiGlow Glow Discharge Cleaning System (Ted Pella). A 3 μl sample of NPR1-TGA3-LS7-DNA (˜1.3 mg/ml) was applied to the grid, incubated for 60 s in the chamber and blotted for 2.4 s with Whatman No. 1 filter paper (Whatman International) to re-move excess sample, and then plunge-frozen into liquid ethane cooled by liquid nitrogen. […]

TGA3 (Asn87-Thr384) = target: T2, TGA3 (Asn87-Thr384) (Arabidopsis thaliana, UniProt Q39234 Q39234:87-384); assay: EMSA; details: tags: His10-MBP (PreScission site) N-terminal, C-terminal tandem Flag-HA; AT1G22070; E. coli; label: 6-FAM
T2 sequence: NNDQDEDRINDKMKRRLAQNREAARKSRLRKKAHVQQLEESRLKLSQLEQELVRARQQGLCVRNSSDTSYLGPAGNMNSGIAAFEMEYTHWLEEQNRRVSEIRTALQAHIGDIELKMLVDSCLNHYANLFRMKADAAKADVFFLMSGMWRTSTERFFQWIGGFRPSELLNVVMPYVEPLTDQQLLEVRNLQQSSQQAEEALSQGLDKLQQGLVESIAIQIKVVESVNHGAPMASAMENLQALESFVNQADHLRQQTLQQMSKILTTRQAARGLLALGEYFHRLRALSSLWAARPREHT
Description: The npr1(dim) mutant (L49D/F53D/V56D/V83K) was cloned into the pTrcHis vector (Thermo Fisher Scientific) as a His10-MBP fusion protein containing a PreScission protease site following MBP and a C-terminal Strep tag, and was expressed and purified similarly to the WT NPR 1 protein. Purified TGA3 (Asn87-Thr384) at a concentration of 0.6 μM and WT NPR1 or the npr1(dim) mutant at a concentration of 8 μM were used in the EMSA with the 6-fluorescein (6-FAM)-labelled oligonucleotide probes (200 nM) containing the LS5 and LS7 as-I cis-elements of the SA-responsive PRI gene promoter (LS5/LS7, 6-FAM-C-ggg[…]ggg) or DNA sequences with the two as-1 regions replaced with adenosines (LS5/LS7, 6-FAM-C-ggg[…]ggg), with the LS7 as-1 element replaced with adenosines (LS5/LS7, 6-FAM-C-ggg[…]-GAggg) or with the LS5 as-1 element replaced with adenosines (LS5/LS7, 6-FAM-C-ggg[…]ggg) as well as their complementary oligonucleotides (Integrated DNA Technologies). The uppercase bases indicate the LS5/LS7 sequence; the lowercase bases indicate overhangs outside the LS5/LS7 sequence; and bases replaced with adenosines are indicated with A's in the small capital font. Pairs of complementary DNA strands were annealed before the binding reaction. For each binding reaction, the desired protein combination was mixed with the target DNA probe together with 30 ng/μL of poly (dI-dC) (non-specific competitor, Thermo Fisher Scientific) in a binding buffer containing 20 mM HEPES (pH 8.0), 300 mM NaCl, 10% glycerol, 1 mM DTT and 0.2 mM SA. […] After electrophoresis, the gel was scanned with the Typhoon FLA 7000 imager (GE Healthcare).

B1: WT NPR1 BTB/BHB (Thr39-Lys262) with C-terminal Strep tag (other)
chain: TGPDVSALQLLSNSFESVFDSPDDFYSDAKLVLSDGREVSFHRCVLSARSSFFKSALAAAKKEKDSNNTAAVKLELKEIAKDYEVGFDSVVTVLAYVYSSRVRPPPKGVSECADENCCHVACRPAVDFMLEVLYLAFIFKIPELITLYQRHLLDVVDKVVIEDTLVILKLANICGKACMKLLDRCKEIIVKSNVDMVSLEKSLPEELVKEIIDRRKELGLEVPK
notes: E. coli expressed, His10-MBP fusion with PreScission site, purified as NPR1(deltaSBD); Used in hydrogen peroxide oxidation assay; also called NPR1 BTB-BHB domain; NPR1 (residues Thr39-Lys262); not shown: C-terminal Strep tag
binding result [1]: binds

B2: Arabidopsis NPR1(deltaSBD) (Thr39-Asp410) with C-terminal Strep tag (other)
chain: TGPDVSALQLLSNSFESVFDSPDDFYSDAKLVLSDGREVSFHRCVLSARSSFFKSALAAAKKEKDSNNTAAVKLELKEIAKDYEVGFDSVVTVLAYVYSSRVRPPPKGVSECADENCCHVACRPAVDFMLEVLYLAFIFKIPELITLYQRHLLDVVDKVVIEDTLVILKLANICGKACMKLLDRCKEIIVKSNVDMVSLEKSLPEELVKEIIDRRKELGLEVPKVKKHVSNVHKALDSDDIELVKLLLKEDHTNLDDACALHFAVAYCNVKTATDLLKLDLADVNHRNPRGYTVLHVAAMRKEPQLILSLLEKGASASEATLEGRTALMIAKQATMAVECNNIPEQCKHSLKGRLCVEILEQEDKREQIPRD
notes: E. coli expressed, His10-MBP removed; Crystal structure PDB 7MK3; two dimers stack to a tetramer in the crystal; also called NPR1 (ASBD); NPR1 (^2SBD); not shown: C-terminal Strep tag
binding result [2]: binds

B3: Arabidopsis TGA3 NID (Ala160-Thr384) with C-terminal tandem Flag-HA tag (other, Arabidopsis thaliana, UniProt Q39234 160-384, looked up)
chain: AGNMNSGIAAFEMEYTHWLEEQNRRVSEIRTALQAHIGDIELKMLVDSCLNHYANLFRMKADAAKADVFFLMSGMWRTSTERFFQWIGGFRPSELLNVVMPYVEPLTDQQLLEVRNLQQSSQQAEEALSQGLDKLQQGLVESIAIQIKVVESVNHGAPMASAMENLQALESFVNQADHLRQQTLQQMSKILTTRQAARGLLALGEYFHRLRALSSLWAARPREHT
notes: range 160-384; Crystallised as a dimer with palmitate (PDB 7TAE); not shown: C-terminal tandem Flag-HA tag
binding result [3]: binds

B4: Arabidopsis TGA3 (Asn87-Thr384) with C-terminal tandem Flag-HA tag (other, Arabidopsis thaliana, UniProt Q39234 87-384, looked up)
chain: NNDQDEDRINDKMKRRLAQNREAARKSRLRKKAHVQQLEESRLKLSQLEQELVRARQQGLCVRNSSDTSYLGPAGNMNSGIAAFEMEYTHWLEEQNRRVSEIRTALQAHIGDIELKMLVDSCLNHYANLFRMKADAAKADVFFLMSGMWRTSTERFFQWIGGFRPSELLNVVMPYVEPLTDQQLLEVRNLQQSSQQAEEALSQGLDKLQQGLVESIAIQIKVVESVNHGAPMASAMENLQALESFVNQADHLRQQTLQQMSKILTTRQAARGLLALGEYFHRLRALSSLWAARPREHT
notes: range 87-384; E. coli expressed; His10-MBP removed with PreScission protease; two dimers per NPR1 dimer in the full complex; also called TGA3-Flag-HA; not shown: C-terminal tandem Flag-HA tag
binding result [4]: binds
binding result [5]: binds

B5: PR1 promoter LS5-/LS7- (both as-1 replaced) (dsDNA)
DNA 1: GGGCTAAAAAAAAAGTAAAATAGAAAAAAAAAGAGGG
DNA 2: CCCTCTTTTTTTTTCTATTTTACTTTTTTTTTAGCCC
binding result (TGA3 (Asn87-Thr384)): no binding
